From the Human Domainome abundance scans (Beltran et al. 2025)

B1: Far upstream element-binding protein 3, residues 75 to 150; numbered along this chain, Q96I24 (parent)
chain: RTVITEEFKVPDKMVGFIIGRGGEQISRIQAESGCKIQIASESSGIPERPCVLTGTPESIEQAKRLLGQIVDRCRN

Variants of: B1
Assay: abundance fitness (aPCA) (normalised: wild type 0, dead -1); higher = more abundant; growth selection in yeast, the domain comes from the species named
Conditions: Homo sapiens

Abundance fitness of substitutions, site by site:
Q30: H -0.279, R -0.05, I -0.131, W -0.487, G -0.171, T -0.11, E 0.029, A -0.058, Y -0.31, P -0.693, M -0.097, L -0.471, F -0.464, K -0.171, N -0.369, V -0.142, S -0.051, D -0.582
G23: Y -0.182, V -0.193, T -0.1
R28: C -0.172, M -0.104, A -0.024, F -0.218, Q -0.02, S -0.085, T -0.064, L -0.143, V -0.202, H -0.108, Y -0.173, N -0.125, E -0.079, P -0.617, W -0.118, D -0.077
S27: V -0.092, N 0.023, T 0.026, D -0.084, I -0.187, Q -0.066, E -0.014, W -0.167, Y -0.241, R 0.068, L -0.075, P -0.232, G 0.004, H -0.117, C -0.147, F -0.153, A -0.033
I26: Y -0.288, A -0.192, H -0.144, W -0.2, T -0.262, L -0.019, R -0.251, Q -0.193, M -0.052, D -0.518, S -0.436, N -0.538, G -0.533, E -0.436, V -0.024, C -0.21, P -0.628, K -0.232, F -0.173
A31: I -0.025, Q 0.003, G -0.06, S -0.029, R -0.005, H 0.057, N -0.044, V -0.061, W -0.168, P -0.774, M -0.07, F -0.127, T -0.039, K 0.033, D -0.015, Y -0.076, E 0.025, L -0.063
Q25: M -0.036, S -0.026, T -0.133, A -0.098, V -0.08, E -0.024, R 0.023, N -0.041, I -0.112, Y -0.197, W -0.213, K -0.037, L -0.138, F -0.105, P -0.163, H -0.077, C -0.025, G -0.058
I29: H -0.622, R -0.856, K -0.676, M -0.105, C -0.191, F -0.278, W -0.521, P -0.625, L -0.034, D -0.432, Q -0.599, S -0.595, G -0.677, V -0.049, A -0.213, Y -0.579, T -0.271, E -0.621
S33: D -0.648, A -0.138, C -0.079
E32: M -0.045, A -0.074, N -0.173, D -0.005, S -0.093, C -0.128, H -0.2, W -0.131, Q 0.016, T -0.055, Y -0.049, I -0.04, G -0.237, R -0.039, P -0.95, K -0.054, V -0.073, L -0.044
E24: D -0.053, L -0.112, A -0.008, K 0.063, Q 0.055, T 0.008, W 0.222, M -0.019, S 0.016, F -0.043, N 0.052, G -0.045, Y 0.062, P -0.271, C 0.031, V -0.03, R 0.113, H 0.059, I -0.035
